Measurements reported in the RNAGym collection of RNA variant scans (doi:10.7554/elife.80360).

B1: Hammerhead Ribozyme (parent)
chain: ACCGGAUGUGCUUUCCGGUCUGAUGAGUCCGUGAGGACGAAACAG

Variants of: B1
Assay: self-cleavage, relative activity (ratio to wild type); higher = more cleavage; co-transcriptional
In the case of ACCGGAUGUGCUUUCCGGUCUGAUGAGUUCGUGAGUACGAAACAG, the self-cleavage is reported as 0.483. For ACCGGAUGUGCUUUCCGGUCUGAUGAGUUCGUGAGAACGAAACAG, the self-cleavage was 0.722. Work on ACCGGAUGUGCUUUCCGGUCUGAUGAGUUCGUGAGCACGAAACAG yielded a self-cleavage of 0.603. ACCGGAUGUGCUUUCCGGUCUGAUGAGUUCGUGAGGACGAAACAG gave a self-cleavage of 0.947. Work on ACCGGAUGUGCUUUCCGGUCUGAUGAGUCAGUGAGGGCGAAACAG yielded a self-cleavage of 0.586. For ACCGGAUGUGCUUUCCGGUCUGAUGAGUCAGUGAGGCCGAAACAG, the self-cleavage was 0.428. For ACCGGAUGUGCUUUCCGGUCUGAUGAGUCAGUGAGGUCGAAACAG, the self-cleavage was 0.42. ACCGGAUGUGCUUUCCGGUCUGAUGAGUCAGUGAGGACGCAACAG showed a self-cleavage of 0.466. ACCGGAUGUGCUUUCCGGUCUGAUGAGUCAGUGAGGACGGAACAG showed a self-cleavage of 0.414. ACCGGAUGUGCUUUCCGGUCUGAUGAGUCAGUGAGGACGUAACAG showed a self-cleavage of 0.347. For ACCGGAUGUGCUUUCCGGUCUGAUGAGUUCGGGAGGACGAAACAG, the self-cleavage was 1.06. ACCGGAUGUGCUUUCCGGUCUGAUGAGUUCGAGAGGACGAAACAG gave a self-cleavage of 0.902. ACCGGAUGUGCUUUCCGGUCUGAUGAGUUCGCGAGGACGAAACAG showed a self-cleavage of 0.843. Variant ACCGGAUGUGCUUUCCGGUCUGAUGAGUCAGGGAGGACGAAACAG has a self-cleavage of 0.892. With ACCGGAUGUGCUUUCCGGUCUGAUGAGUCAGCGAGGACGAAACAG the self-cleavage was 0.879. With ACCGGAUGUGCUUUCCGGUCUGAUGAGUCAGAGAGGACGAAACAG the self-cleavage was 0.797. Work on ACCGGAUGUGCUUUCCGGUCUGAUGAGUCGGUGCGGACGAAACAG yielded a self-cleavage of 0.802. In the case of ACCGGAUGUGCUUUCCGGUCUGAUGAGUCGGUGGGGACGAAACAG, the self-cleavage is reported as 0.409. In the case of ACCGGAUGUGCUUUCCGGUCUGAUGAGUCGGUGUGGACGAAACAG, the self-cleavage is reported as 0.888. Work on ACCGGAUGUGCUUUCCGGUCUGAUGAGUCGGUGAGGACGAGACAG yielded a self-cleavage of 0.349. Work on ACCGGAUGUGCUUUCCGGUCUGAUGAGUCGGUGAGGACGACACAG yielded a self-cleavage of 0.368. With ACCGGAUGUGCUUUCCGGUCUGAUGAGUCAGUGAGGACGACACAG the self-cleavage was 0.423. In the case of ACCGGAUGUGCUUUCCGGUCUGAUGAGUCAGUGAGGACGAGACAG, the self-cleavage is reported as 0.347. Variant ACCGGAUGUGCUUUCCGGUCUGAUGAGUCAGUGAGGACGAUACAG has a self-cleavage of 0.377. With ACCGGAUGUGCUUUCCGGUCUGAUGAGUCAGUGAGGACGAAACUG the self-cleavage was 0.441. ACCGGAUGUGCUUUCCGGUCUGAUGAGUCAGUGAGGACGAAACGG showed a self-cleavage of 0.819. ACCGGAUGUGCUUUCCGGUCUGAUGAGUCAGUGAGGACGAAACCG showed a self-cleavage of 0.317. With ACCGGAUGUGCUUUCCGGUCUGAUGAGUCAGUGAGGAAGAAACAG the self-cleavage was 0.386. ACCGGAUGUGCUUUCCGGUCUGAUGAGUCAGUGAGGAUGAAACAG showed a self-cleavage of 0.743. For ACCGGAUGUGCUUUCCGGUCUGAUGAGUCAGUGAGGAGGAAACAG, the self-cleavage was 0.48. In the case of ACCGGAUGUGCUUUCCGGUCUGAUGAGUUCGUGAGGGCGAAACAG, the self-cleavage is reported as 0.751. For ACCGGAUGUGCUUUCCGGUCUGAUGAGUUCGUGAGGCCGAAACAG, the self-cleavage was 0.93. Variant ACCGGAUGUGCUUUCCGGUCUGAUGAGUUCGUGAGGUCGAAACAG has a self-cleavage of 0.371. ACCGGAUGUGCUUUCCGGUCUGAUGAGUCAGUGAGGACGAAAAAG gave a self-cleavage of 0.293. Variant ACCGGAUGUGCUUUCCGGUCUGAUGAGUCAGUGAGGACGAAAUAG has a self-cleavage of 0.431. Variant ACCGGAUGUGCUUUCCGGUCUGAUGAGUCAGUGAGGACGAAAGAG has a self-cleavage of 0.386. For ACCGGAUGUGCUUUCCGGUCUGAUGAGUCAGUGAGGACGAAGCAG, the self-cleavage was 0.246. With ACCGGAUGUGCUUUCCGGUCUGAUGAGUCAGUGAGGACGAACCAG the self-cleavage was 0.322. For ACCGGAUGUGCUUUCCGGUCUGAUGAGUCAGUGAGGACGAAUCAG, the self-cleavage was 0.312. With ACCGGAUGUGCUUUCCGGUCUGAUGAGUCAGUGAGGACUAAACAG the self-cleavage was 0.418. ACCGGAUGUGCUUUCCGGUCUGAUGAGUCAGUGAGGACCAAACAG gave a self-cleavage of 0.303. With ACCGGAUGUGCUUUCCGGUCUGAUGAGUCAGUGAGGACAAAACAG the self-cleavage was 0.348. With ACCGGAUGUGCUUUCCGGUCUGAUGAGUCAGUUAGGACGAAACAG the self-cleavage was 0.995. Variant ACCGGAUGUGCUUUCCGGUCUGAUGAGUCAGUCAGGACGAAACAG has a self-cleavage of 0.755. ACCGGAUGUGCUUUCCGGUCUGAUGAGUCAGUAAGGACGAAACAG showed a self-cleavage of 1.21. ACCGGAUGUGCUUUCCGGUCUGAUGAGUUCGUGAGGAUGAAACAG gave a self-cleavage of 1.04. For ACCGGAUGUGCUUUCCGGUCUGAUGAGUUCGUGAGGAGGAAACAG, the self-cleavage was 0.559. Work on ACCGGAUGUGCUUUCCGGUCUGAUGAGUUCGUGAGGAAGAAACAG yielded a self-cleavage of 0.485. ACCGGAUGUGCUUUCCGGUCUGAUGAGUUCUUGAGGACGAAACAG gave a self-cleavage of 0.783. ACCGGAUGUGCUUUCCGGUCUGAUGAGUUCCUGAGGACGAAACAG showed a self-cleavage of 0.673. Work on ACCGGAUGUGCUUUCCGGUCUGAUGAGUUCAUGAGGACGAAACAG yielded a self-cleavage of 0.994. ACCGGAUGUGCUUUCCGGUCUGAUGAGUGCGUGAGGACGAAACAU gave a self-cleavage of 0.458. With ACCGGAUGUGCUUUCCGGUCUGAUGAGUGCGUGAGGACGAAACAA the self-cleavage was 0.359. In the case of ACCGGAUGUGCUUUCCGGUCUGAUGAGUGCGUGAGGACGAAACAC, the self-cleavage is reported as 0.371. Work on ACCGGAUGUGCUUUCCGGUCUGAUGAGUUCGUGAGGACGCAACAG yielded a self-cleavage of 0.51. With ACCGGAUGUGCUUUCCGGUCUGAUGAGUUCGUGAGGACGGAACAG the self-cleavage was 0.389. In the case of ACCGGAUGUGCUUUCCGGUCUGAUGAGUUCGUGAGGACGUAACAG, the self-cleavage is reported as 0.28.
